Laboratory results taken from the supplement of paper PMC5998384.

Key:
HeLa Kyoto [1] = assay: thermal stability score vs G1/S (z-score of summed log2 fold changes over temperatures); higher = more thermally stable than in G1/S
HeLa Kyoto [2] = assay: solubility in G1/S (NP-40 vs SDS abundance) (log2 ratio); higher = more soluble; conditions: cell cycle stage: G1/S
HeLa Kyoto [3] = assay: solubility change mitosis vs G1/S (difference of NP-40 vs SDS log2 ratios) (log2 ratio difference); higher = more soluble in mitosis
[4] = cell cycle stage: early G1 (4.5 h after nocodazole release)
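Wherever solubility change mitosis vs G1/S (difference of NP-40 vs SDS log2 ratios) is given: synchronized HeLa Kyoto cells (double thymidine block for G1/S, nocodazole release for mitosis), protein amounts in NP-40 versus SDS lysates quantified by mass spectrometry, three biological replicates.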
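Wherever solubility in G1/S (NP-40 vs SDS abundance) is given: HeLa Kyoto cells arrested at G1/S by double thymidine block, proteins quantified by TMT10plex mass spectrometry in mild NP-40 versus SDS extracts, three biological replicates.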
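Wherever thermal stability score vs G1/S (z-score of summed log2 fold changes over temperatures) is given: synchronized HeLa Kyoto cells, proteins quantified by TMT10plex mass spectrometry, three biological replicates, mitosis taken 0.5 h after nocodazole release, G1/S directly after double thymidine block.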

Row | Sequence | thermal stability score (HeLa Kyoto [1]; [4]) | thermal stability score (HeLa Kyoto [1]; cell cycle stage: mitosis) | solubility in G1/S (log2) (HeLa Kyoto [2]) | solubility change mitosis (log2) (HeLa Kyoto [3])
1 | MANSMNGRNPGGRGGNPRKGRILGIIDAIQDAVGPPKQAAADRRTVEKTWKLMDKVVRLCQNPKLQLKNSPPYILDILPDTYQHLRLILSKYDDNQKLAQLSENEYFKIYIDSLMKKSKRAIRLFKEGKERMYEEQSQDRRNLTKLSLIFSHMLAEIKAIFPNGQFQGDNFRITKADAAEFWRKFFGDKTIVPWKVFRQCLHEVHQISSGLEAMALKSTIDLTCNDYISVFEFDIFTRLFQPWGSILRNWNFLAVTHPGYMAFLTYDEVKARLQKYSTKPGSYIFRLSCTRLGQWAIGYVTGDGNILQTIPHNKPLFQALIDGSREGFYLYPDGRSYNPDLTGLCEPTPHDHIKVTQEQYELYCEMGSTFQLCKICAENDKDVKIEPCGHLMCTSCLTAWQESDGQGCPFCRCEIKGTEPIIVDPFDPRDEGSRCCSIIDPFGMPMLDLDDDDDREESLMMNRLANVRKCTDRQNSPVTSPGSSPLAQRRKPQPDPLQIPHLSLPPVPPRLDLIQKGIVRSPCGSPTGSPKSSPCMVRKQDKPLPAPPPPLRDPPPPPPERPPPIPPDNRLSRHIHHVESVPSRDPPMPLEAWCPRDVFGTNQLVGCRLLGEGSPKPGITASSNVNGRHSRVGSDPVLMRKHRRHDLPLEGAKVFSNGHLGSEEYDVPPRLSPPPPVTTLLPSIKCTGPLANSLSEKTRDPVEEDDDEYKIPSSHPVSLNSQPSHCHNVKPPVRSCDNGHCMLNGTHGPSSEKKSNIPDLSIYLKGDVFDSASDPVPLPPARPPTRDNPKHGSSLNRTPSDYDLLIPPLGEDAFDALPPSLPPPPPPARHSLIEHSKPPGSSSRPSSGQDLFLLPSDPFVDLASGQVPLPPARRLPGENVKTNRTSQDYDQLPSCSDGSQAPARPPKPRPRRTAPEIHHRKPHGPEAALENVDAKIAKLMGEGYAFEEVKRALEIAQNNVEVARSILREFAFPPPVSPRLNL [CBLB] | -0.843 | -0.129 | -0.447 | 0.0975
2 | MAPSLWKGLVGIGLFALAHAAFSAAQHRSYMRLTEKEDESLPIDIVLQTLLAFAVTCYGIVHIAGEFKDMDATSELKNKTFDTLRNHPSFYVFNHRGRVLFRPSDTANSSNQDALSSNTSLKLRKLESLRR [MMGT1] | -0.869 | -1.57 | -0.125 | -0.109
3 | MASDASHALEAALEQMDGIIAGTKTGADLSDGTCEPGLASPASYMNPFPVLHLIEDLRLALEMLELPQERAALLSQIPGPTAAYIKEWFEESLSQVNHHSAASNETYQERLARLEGDKESLILQVSVLTDQVEAQGEKIRDLEVCLEGHQVKLNAAEEMLQQELLSRTSLETQKLDLMTEVSELKLKLVGMEKEQREQEEKQRKAEELLQELRHLKIKVEELENERNQYEWKLKATKAEVAQLQEQVALKDAEIERLHSQLSRTAALHSESHTERDQEIQRLKMGMETLLLANEDKDRRIEELTGLLNQYRKVKEIVMVTQGPSERTLSINEEEPEGGFSKWNATNKDPEELFKQEMPPRCSSPTVGPPPLPQKSLETRAQKKLSCSLEDLRSESVDKCMDGNQPFPVLEPKDSPFLAEHKYPTLPGKLSGATPNGEAAKSPPTICQPDATGSSLLRLRDTESGWDDTAVVNDLSSTSSGTESGPQSPLTPDGKRNPKGIKKFWGKIRRTQSGNFYTDTLGMAEFRRGGLRATAGPRLSRTRDSKGQKSDANAPFAQWSTERVCAWLEDFGLAQYVIFARQWVSSGHTLLTATPQDMEKELGIKHPLHRKKLVLAVKAINTKQEEKSALLDHIWVTRWLDDIGLPQYKDQFHESRVDRRMLQYLTVNDLLFLKVTSQLHHLSIKCAIHVLHVNKFNPHCLHRRPADESNLSPSEVVQWSNHRVMEWLRSVDLAEYAPNLRGSGVHGGLIILEPRFTGDTLAMLLNIPPQKTLLRRHLTTKFNALIGPEAEQEKREKMASPAYTPLTTTAKVRPRKLGFSHFGNIRKKKFDESTDYICPMEPSDGVSDSHRVYSGYRGLSPLDAPELDGLDQVGQIS [PPFIBP2] | 0.328 | 0.498 | 0.218 | -0.265
4 | MATAPSYPAGLPGSPGPGSPPPPGGLELQSPPPLLPQIPAPGSGVSFHIQIGLTREFVLLPAASELAHVKQLACSIVDQKFPECGFYGLYDKILLFKHDPTSANLLQLVRSSGDIQEGDLVEVVLSASATFEDFQIRPHALTVHSYRAPAFCDHCGEMLFGLVRQGLKCDGCGLNYHKRCAFSIPNNCSGARKRRLSSTSLASGHSVRLGTSESLPCTAEELSRSTTELLPRRPPSSSSSSSASSYTGRPIELDKMLLSKVKVPHTFLIHSYTRPTVCQACKKLLKGLFRQGLQCKDCKFNCHKRCATRVPNDCLGEALINGDVPMEEATDFSEADKSALMDESEDSGVIPGSHSENALHASEEEEGEGGKAQSSLGYIPLMRVVQSVRHTTRKSSTTLREGWVVHYSNKDTLRKRHYWRLDCKCITLFQNNTTNRYYKEIPLSEILTVESAQNFSLVPPGTNPHCFEIVTANATYFVGEMPGGTPGGPSGQGAEAARGWETAIRQALMPVILQDAPSAPGHAPHRQASLSISVSNSQIQENVDIATVYQIFPDEVLGSGQFGVVYGGKHRKTGRDVAVKVIDKLRFPTKQESQLRNEVAILQSLRHPGIVNLECMFETPEKVFVVMEKLHGDMLEMILSSEKGRLPERLTKFLITQILVALRHLHFKNIVHCDLKPENVLLASADPFPQVKLCDFGFARIIGEKSFRRSVVGTPAYLAPEVLLNQGYNRSLDMWSVGVIMYVSLSGTFPFNEDEDINDQIQNAAFMYPASPWSHISAGAIDLINNLLQVKMRKRYSVDKSLSHPWLQEYQTWLDLRELEGKMGERYITHESDDARWEQFAAEHPLPGSGLPTDRDLGGACPPQDHDMQGLAERISVL [PRKD2] | 0.521 | 0.296 | -0.115 | -0.188
5 | MAVEDEGLRVFQSVKIKIGEAKNLPSYPGPSKMRDCYCTVNLDQEEVFRTKIVEKSLCPFYGEDFYCEIPRSFRHLSFYIFDRDVFRRDSIIGKVAIQKEDLQKYHNRDTWFQLQHVDADSEVQGKVHLELRLSEVITDTGVVCHKLATRIVECQGLPIVNGQCDPYATVTLAGPFRSEAKKTKVKRKTNNPQFDEVFYFEVTRPCSYSKKSHFDFEEEDVDKLEIRVDLWNASNLKFGDEFLGELRIPLKVLRQSSSYEAWYFLQPRDNGSKSLKPDDLGSLRLNVVYTEDHVFSSDYYSPLRDLLLKSADVEPVSASAAHILGEVCREKQEAAVPLVRLFLHYGRVVPFISAIASAEVKRTQDPNTIFRGNSLASKCIDETMKLAGMHYLHVTLKPAIEEICQSHKPCEIDPVKLKDGENLENNMENLRQYVDRVFHAITESGVSCPTVMCDIFFSLREAAAKRFQDDPDVRYTAVSSFIFLRFFAPAILSPNLFQLTPHHTDPQTSRTLTLISKTVQTLGSLSKSKSASFKESYMATFYEFFNEQKYADAVKNFLDLISSSGRRDPKSVEQPIVLKEGFMIKRAQGRKRFGMKNFKKRWFRLTNHEFTYHKSKGDQPLYSIPIENILAVEKLEEESFKMKNMFQVIQPERALYIQANNCVEAKDWIDILTKVSQCNQKRLTVYHPSAYLSGHWLCCRAPSDSAPGCSPCTGGLPANIQLDIDGDRETERIYSLFNLYMSKLEKMQEACGSKSVYDGPEQEEYSTFVIDDPQETYKTLKQVIAGVGALEQEHAQYKRDKFKKTKYGSQEHPIGDKSFQNYIRQQSETSTHSI [RASA3] | 0.315 | 0.353 | -0.118 | -0.19
6 | MDAATLTYDTLRFAEFEDFPETSEPVWILGRKYSIFTEKDEILSDVASRLWFTYRKNFPAIGGTGPTSDTGWGCMLRCGQMIFAQALVCRHLGRDWRWTQRKRQPDSYFSVLNAFIDRKDSYYSIHQIAQMGVGEGKSIGQWYGPNTVAQVLKKLAVFDTWSSLAVHIAMDNTVVMEEIRRLCRTSVPCAGATAFPADSDRHCNGFPAGAEVTNRPSPWRPLVLLIPLRLGLTDINEAYVETLKHCFMMPQSLGVIGGKPNSAHYFIGYVGEELIYLDPHTTQPAVEPTDGCFIPDESFHCQHPPCRMSIAELDPSIAVGFFCKTEDDFNDWCQQVKKLSLLGGALPMFELVELQPSHLACPDVLNLSLDSSDVERLERFFDSEDEDFEILSL [ATG4B] | -0.634 | 1.02 | -0.00856 | -0.28
7 | MDAWVRFSAQSQARERLCRAAQYACSLLGHALQRHGASPELQKQIRQLESHLSLGRKLLRLGNSADALESAKRAVHLSDVVLRFCITVSHLNRALYFACDNVLWAGKSGLAPRVDQEKWAQRSFRYYLFSLIMNLSRDAYEIRLLMEQESSACSRRLKGSGGGVPGGSETGGLGGPGTPGGGLPQLALKLRLQVLLLARVLRGHPPLLLDVVRNACDLFIPLDKLGLWRCGPGIVGLCGLVSSILSILTLIYPWLRLKP [PEX11B] | 0.106 | 0.142 | -0.779 | 0.18
8 | MDGLQASAGPLRRGRPKRRRKPQPHSGSVLALPLRSRKIRKQLRSVVSRMAALRTQTLPSENSEESRVESTADDLGDALPGGAAVAAVPDAARREPYGHLGPAELLEASPAARSLQTPSARLVPASAPPARLVEVPAAPVRVVETSALLCTAQHLAAVQSSGAPATASGPQVDNTGGEPAWDSPLRRVLAELNRIPSSRRRAARLFEWLIAPMPPDHFYRRLWEREAVLVRRQDHTYYQGLFSTADLDSMLRNEEVQFGQHLDAARYINGRRETLNPPGRALPAAAWSLYQAGCSLRLLCPQAFSTTVWQFLAVLQEQFGSMAGSNVYLTPPNSQGFAPHYDDIEAFVLQLEGRKLWRVYRPRVPTEELALTSSPNFSQDDLGEPVLQTVLEPGDLLYFPRGFIHQAECQDGVHSLHLTLSTYQRNTWGDFLEAILPLAVQAAMEENVEFRRGLPRDFMDYMGAQHSDSKDPRRTAFMEKVRVLVARLGHFAPVDAVADQRAKDFIHDSLPPVLTDRERALSVYGLPIRWEAGEPVNVGAQLTTETEVHMLQDGIARLVGEGGHLFLYYTVENSRVYHLEEPKCLEIYPQQADAMELLLGSYPEFVRVGDLPCDSVEDQLSLATTLYDKGLLLTKMPLALN [NO66] | -0.151 | 0.066 | -0.879 | 0.755
9 | MDLHRAAFKMENSSYLPNPLASPALMVLASTAEASRDASIPCQQPRPFGVPVSVDKDVHIPFTNGSYTFASMYHRQGGVPGTFANRDFPPSLLHLHPQFAPPNLDCTPISMLNHSGVGAFRPFASTEDRESYQSAFTPAKRLKNCHDTESPHLRFSDADGKEYDFGTQLPSSSPGSLKVDDTGKKIFAVSGLISDREASSSPEDRNDRCKKKAAALFDSQAPICPICQVLLRPSELQEHMEQELEQLAQLPSSKNSLLKDAMAPGTPKSLLLSASIKREGESPTASPHSSATDDLHHSDRYQTFLRVRANRQTRLNARIGKMKRRKQDEGQREGSCMAEDDAVDIEHENNNRFEEYEWCGQKRIRATTLLEGGFRGSGFIMCSGKENPDSDADLDVDGDDTLEYGKPQYTEADVIPCTGEEPGEAKEREALRGAVLNGGPPSTRITPEFSKWASDEMPSTSNGESSKQEAMQKTCKNSDIEKITEDSAVTTFEALKARVRELERQLSRGDRYKCLICMDSYSMPLTSIQCWHVHCEECWLRTLGAKKLCPQCNTITAPGDLRRIYL [RNF220] | 0.0151 | -0.144 | 0.298 | -0.0624
